# B1: ER membrane protein complex subunit 2 (Homo sapiens), Q15006 (parent)
# chain: MAKVSELYDVTWEEMRDKMRKWREENSRNSEQIVEVGEELINEYASKLGDDIWIIYEQVMIAALDYGRDDLALFCLQELRRQFPGSHRVKRLTGMRFEAMERYDDAIQLYDRILQEDPTNTAARKRKIAIRKAQGKNVEAIRELNEYLEQFVGDQEAWHELAELYINEHDYAKAAFCLEELMMTNPHNHLYCQQYAEVKYTQGGLENLELSRKYFAQALKLNNRNMRALFGLYMSASHIASNPKASAKTKKDNMKYASWAASQINRAYQFAGRSKKETKYSLKAVEDMLETLQITQS
# partner: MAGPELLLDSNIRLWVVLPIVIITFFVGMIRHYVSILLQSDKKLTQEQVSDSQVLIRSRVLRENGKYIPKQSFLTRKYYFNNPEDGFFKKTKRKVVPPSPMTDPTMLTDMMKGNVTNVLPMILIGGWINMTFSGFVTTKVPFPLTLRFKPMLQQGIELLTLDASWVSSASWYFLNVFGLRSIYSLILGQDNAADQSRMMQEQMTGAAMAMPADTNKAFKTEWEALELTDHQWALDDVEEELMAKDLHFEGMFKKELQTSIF
# B2: ER membrane protein complex subunit 6 (Homo sapiens), Q9BV81 (parent)
# chain: MAAVVAKREGPPFISEAAVRGNAAVLDYCRTSVSALSGATAGILGLTGLYGFIFYLLASVLLSLLLILKAGRRWNKYFKSRRPLFTGGLIGGLFTYVLFWTFLYGMVHVY
# partner: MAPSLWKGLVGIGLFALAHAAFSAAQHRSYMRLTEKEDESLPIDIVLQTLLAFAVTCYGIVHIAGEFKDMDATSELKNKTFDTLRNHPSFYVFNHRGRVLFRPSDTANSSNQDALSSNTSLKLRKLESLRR
# B3: ER membrane protein complex subunit 2 (Homo sapiens), Q15006 (parent)
# chain: B1 chain
# partner: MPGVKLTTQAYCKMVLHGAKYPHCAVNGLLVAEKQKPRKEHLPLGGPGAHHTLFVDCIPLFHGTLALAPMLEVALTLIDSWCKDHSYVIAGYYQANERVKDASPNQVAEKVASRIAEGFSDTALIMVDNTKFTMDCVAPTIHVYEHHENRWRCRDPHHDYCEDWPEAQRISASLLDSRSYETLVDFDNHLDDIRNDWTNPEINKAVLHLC
# Variants of: B1
# Conditions: with emc3_human EMC3, Q9P0I2
row,Variant,effect of a mutation on the interaction
1,MAKVSELYDVTWEEMRDKMRKWREENSRNSEQIVEVGEELINEYASKLGDDIWIIYEQVMIAALDYGRDDLALFCLQELRRQFPGSHRVKRLTGMRFEAMERYDDAIQLYDRILQEDPTNTAARKRKIAIRKAQGKNVEAIRELNEYLEQFVGDQEAWHALAELYINEHDYAKAAFCLEELMMTNPHNHLYCQQYAEVKYTQGGLENLELSRKYFAQALKLNNRNMRALFGLYMSASHIASNPKASAKTKKDNMKYASWAASQINRAYQFAGRSKKETKYSLKAVEDMLETLQITQS [E160A],with no effect

# Variants of: B2
# Conditions: with emc5_human MMGT1, Q8N4V1
row,Variant,effect of a mutation on the interaction
1,MAAVVAKREGPPFISEAAVRGNAAVLDYCRTSKSAKSGATAGILGLTGLYGFIFYLLASVLLSLLLILKAGRRWNKYFKSRRPLFTGGLIGGLFTYVLFWTFLYGMVHVY,with no effect
2,MAAVVAKREGPPFISEAAVRGNAAVLDYCRTSVSALSGATAGILYLTALYGFIFYLLASVLLSLLLILKAGRRWNKYFKSRRPLFTGGLIGGLFTYVLFWTFLYGMVHVY,with no effect

# Variants of: B3
# Conditions: with emc8_human EMC8, O43402
row,Variant,effect of a mutation on the interaction
1,MAKVSELYDVTWEEMRDKMRKWREENSRNSEQIVEVGEELINEYASKLGDDIWIIYEQVMIAALDYGRDDLALFCLQELRRQFPGSHRVKRLTGMRFEAMERYDDAIQLYDRILQEDPTNTAARKRKIAIRKAQGKNVEAIRELNEYLEQFVGDQEAWHELAELYINEHDAAKAAFCLEELMMTNPHNHLYCQQYAEVKYTQGGLENLELSRKYFAQALKLNNRNMRALFGLYMSASHIASNPKASAKTKKDNMKYASWAASQINRAYQFAGRSKKETKYSLKAVEDMLETLQITQS [Y171A],with no effect
2,MAKVSELYDVTWEEMRDKMRKWREENSRNSEQIVEVGEELINEYASKLGDDIWIIYEQVMIAALDYGRDDLALFCLQELRRQFPGSHRVKRLTGMRFEAMERYDDAIQLYDRILQEDPTNTAARKRKIAIRKAQGKNVEAIRELNEYLEQFVGDQEAWHELAELYINEHDYAKAAFCLEELMMTNPHNHLYCQQYAEVKYTQGGLENLELSRKYFAQALKLNNRNMRALFGLYMSASHIASNPKASAKTKKDNMKYASAAASQINRAYQFAGRSKKETKYSLKAVEDMLETLQITQS [W259A],with no effect
3,MAKVSELYDVTWEEMRDKMRKWREENSANSEQIVEVGEELINEYASKLGDDIWIIYEQVMIAALDYGRDDLALFCLQELRRQFPGSHRVKRLTGMRFEAMERYDDAIQLYDRILQEDPTNTAARKRKIAIRKAQGKNVEAIRELNEYLEQFVGDQEAWHELAELYINEHDYAKAAFCLEELMMTNPHNHLYCQQYAEVKYTQGGLENLELSRKYFAQALKLNNRNMRALFGLYMSASHIASNPKASAKTKKDNMKYASWAASQINRAYQFAGRSKKETKYSLKAVEDMLETLQITQS [R28A],with no effect
4,MAKVSELYDVTWEEMRDKMRKWREENSRNSEQIVEVGEELINEYASKLGDDIWIIYEQVMIAALDYGRDDLALFCLQELRRQFPGSHRVKRLTGMRFEAMERYDDAIQLYDRILQEDPTNTAARKRKIAIRKAQGKNVEAIRELNEYLEQFVGDQAAWHELAELYINEHDYAKAAFCLEELMMTNPHNHLYCQQYAEVKYTQGGLENLELSRKYFAQALKLNNRNMRALFGLYMSASHIASNPKASAKTKKDNMKYASWAASQINRAYQFAGRSKKETKYSLKAVEDMLETLQITQS [E156A],with no effect
5,MAKVSELYDVTWEEMRDKMRKWREENSRNSEQIVEVGEELINEYASKLGDDIWIIYEQVMIAALDYGRDDLALFCLQELRRQFPGSHRVKRLTGMRFEAMERYDDAIQLYDRILQEDPTNTAARKRKIAIRKAQGKNVEAIRELNEYLEQFVGDQEAWHELAELYINEHDYAKAAFCLEALMMTNPHNHLYCQQYAEVKYTQGGLENLELSRKYFAQALKLNNRNMRALFGLYMSASHIASNPKASAKTKKDNMKYASWAASQINRAYQFAGRSKKETKYSLKAVEDMLETLQITQS [E180A],with no effect
6,MAKVSELYDVTWEEMRDKMRKWREENSRNSEQIVEVGEELINEYASKLGDDIWIIYEQVMIAALDYGRDDLALFCLQELRRQFPGSHRVKRLTGMRFEAMERYDDAIQLYDRILQEDPTNTAARKRKIAIRKAQGKNVEAIRELNEYLEQFVGDQEAWHALAELYINEHDYAKAAFCLEELMMTNPHNHLYCQQYAEVKYTQGGLENLELSRKYFAQALKLNNRNMRALFGLYMSASHIASNPKASAKTKKDNMKYASWAASQINRAYQFAGRSKKETKYSLKAVEDMLETLQITQS [E160A],with no effect
7,MAKVSELYDVTWEEMRDKMRKWREENSRNSEQIVEVGEELINEYASKLGDDIWIIYEQVMIAALDYGRDDLALFCLQELRRQFPGSHRVKRLTGMRFEAMERYDDAIQLYDRILQEDPTNTAARKRKIAIRKAQGKNVEAIRELNEYLEQFVGDQEAWHELAELYINEHDYAKAAFCLEELMMTNPHNHLYCQQYAEVKATQGGLENLELSRKYFAQALKLNNRNMRALFGLYMSASHIASNPKASAKTKKDNMKYASWAASQINRAYQFAGRSKKETKYSLKAVEDMLETLQITQS [Y200A],disrupting interaction strength
8,MAKVSELYDVTWEEMRDKMRKWREENSRNSEQIVEVGEELINEYASKLGDDIWIIYEQVMIAALDYGRDDLALFCLQELRRQFPGSHRVKRLTGMRFEAMERYDDAIQLYDRILQEDPTNTAARKRKIAIRKAQGKNVEAIRELNEYLEQFVGDQEAWHELAELYINEHDYAKAAFCLEELMMTNPHNHLYCQQYAEVKYTQGGLENLELSRKYFAQALKLNNRNMAALFGLYMSASHIASNPKASAKTKKDNMKYASWAASQINRAYQFAGRSKKETKYSLKAVEDMLETLQITQS [R227A],disrupting interaction strength

# Reference: IntAct's records for PubMed 32439656
